Target: T1, 6xHIS-Nba1_(202-289)-SNAP (S. cerevisiae, UniProt Q08229 202-289)
T1 construct: Nba1, S. cerevisiae, residues 202-289; also called the PxxP site; source: E. coli BL21DE3, purified (HisTrap HP, size-exclusion chromatography); not shown: 6xHIS, N-terminal, kept; SNAP-tag, C-terminal, kept
T1 sequence (looked up): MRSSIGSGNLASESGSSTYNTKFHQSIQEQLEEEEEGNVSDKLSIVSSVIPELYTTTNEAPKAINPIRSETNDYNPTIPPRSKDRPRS
Assay: SPR; Biacore X100; GST-SH3 domains captured on an anti-GST antibody CM5 chip, free GST on the reference cell; 6xHis-Nba1_(202-289)-SNAP as analyte; HBSEP buffer (10 mM Hepes, 150 mM NaCl, 3 mM EDTA, 0.05% Tween 20, pH 7.4); equilibrium KD
Settings: both partners purified

B1: GST-SH3_(Boi1) (domain or fragment, S. cerevisiae, UniProt P38041 13-77, looked up)
chain: KSFPLYIAVNQYSKRMEDELNMKPGDKIKVITDDGEYNDGWYYGRNLRTKEEGLYPAVFTKRIAI
notes: SH3 domain of Boi1, S. cerevisiae; also called GST fusion to SH3_(Boi1); source: E. coli BL21DE3, purified (GSTrap, Superdex 200) for SPR; coupled to glutathione beads from extract for the pull-down; not shown: GST, N-terminal, kept
Kd: ~0.74 µM

B2: GST-SH3_(Boi2) (domain or fragment, S. cerevisiae, UniProt P39969 43-107, looked up)
chain: GNFPMYIAINEYFKRMEDELDMKPGDKIKVITDDEEYKDGWYFGRNLRTNEEGLYPVVFTQKITV
notes: SH3 domain of Boi2, S. cerevisiae; source: E. coli BL21DE3, purified (GSTrap, Superdex 200); not shown: GST, N-terminal, kept
Kd: 1.97 µM

From PMC7409549, “A time-resolved interaction analysis of Bem1 reconstructs the flow of Cdc42 during polar growth” (Life Science Alliance, 2020)
